Test results from paper PMC6832383, “Co-Immobilization of Tri-Enzymes for the Conversion of Hydroxymethylfurfural to 2,5-Diformylfuran” (Molecules, 2019).

How the values were obtained:
[1] = tested on: T1, horseradish peroxidase; experiment: spectrophotometric initial rates at […] nm (purpurogallin), non-linear Michaelis-Menten fit; assay type: biochemical, Armoracia rusticana; details: free enzyme; co-substrate 10 mM H2O2; 100 mM phosphate pH 6.0; 30 °C; pyrogallol 1-8 mM
T1 construct: gene PRXC1A

[2] = tested on: COc1cccc(CO)c1; experiment: purified protein; details: free enzyme, Tris-HCl 50 mM pH 7.1, 37 °C, substrate 3-60 mM

| Molecule | Km [1] | Km [2] | Vmax [2] |
| --- | --- | --- | --- |
| Oc1cccc(O)c1O [pyrogallol] | 2210 ± 40 µM | – | – |
| galactose oxidase (Fusarium graminearum) | – | 17600 ± 1300 µM | 216 µmol/min/mg |
